Here are results for 22 sequences from a protein production outcome set (Wang et al. 2014).

This data set is described as follows: label from the status in PepcDB records.

Regarding “MVTLCQVFGVHRSSYRYWKNRPEKPDGRRAVLRSQVLELHGISHGSAGARSIATMATRRGYQMGRWLAGRLMKELGLVSCQQPTHRYKRGGHEHVAMPKWVILYCRRWMEAPMQSCENGELITRTRGTPQGGVISPLLANLFLHYAFDLWMEREYRGVPFERYADDIVVHCSRMSDATRLKNRLSERFSEVGLVLNAGKTNIAYIDTFKRRNVATSFTFLGYDFKVRTLKNFKGERYRKCMPGASNAAMRKITETIKKWRIHRSTAESLLDFARRYNTIVRGWIEYYGKFWSRNFNYRLWSAMQSRLLKWMQSKYRLSNRKAQRKLTLVRKEYPKLFVHWYLLRASNE”, the protein production entry is given as “failed”. The result for “MVTNQKHLEDFGYLKMTQKEGTILPEEYVSIIQHPKGGPKSVTLRENKVSGLKENFIHYLTDTEPGSSGSPVFNDQWTLVALHHSGVPNPEIKDLEHHHHHH” reads “not failed”; that for “MVTQKQRRLWAFLAALACVMWGISGLFAKSLFNISSDITPMWLSQIRMVTSGIILLIVAGILKQKPIATMKNKHDAWVIIAYGIFGLLPVQLFYFIVVQQANASIATILQFVGPFFVMGYLAFTHKQVMRRIDVIAAIFAFIGVVLLATHGRFNHLAITPSVLFWGLLSAVGVATNTLIPIGVLKRVSSLVVTGWGLLSAGICLMIVHPQMPHIPNTPHVWLDVLAVIVIGTLIPFQLMTNSLRFIKASTASLLDAFEPFSATLGSVLCFGLVMTPMDWIGSILVVLAAMALNISPKKKKGKLDGKSQD”, “failed”. The result for “MVTSSQVMLMPAHDSAKPTGFGIMVTSLDLLRDHQKVIHTLWFIDDVVARELGGFDGFCRRERVLLLFVDSTNTTLSFTRNDMTCVPRQGGADSDHWLFKRHLALLLPLSFAQVYEGFISFYEEEDKHISWDIKSCSSSSHQ” reads “failed”.

As to “MVTTRKPLRAAIIGLGRLGERHARHLVNKIQGVKLVAACALDSNQLEWAKNELGVETTYTNYKDMIDTENIDAIFIVAPTPFHPEMTIYAMNAGLNVFCEKPLGLDFNEVDEMAKVIKSHPNQIFQSGFMRRYDDSYRYAKKIVDNGDIGKIIYMRGYGIDPISGMESFTKFATEADSGGIFVDMNIHDIDLIRWFTGQDPVQAYGLTSNIAAPQLADIGEFETGVAQLKMSDGVIATLIGGRHAAHGNQVELEVMGSNGWVRIGEHPDLNRVTVFNDQGVVRPSLQSFGERFDTAFTDEVQDFVNNVIVGKQPEVTVDDGIKALKIAKACQQSANIGKLVDIQL”, the protein production entry is “failed”. For the sequence “MVVADGHDLQESPLRWIPFLAVFLYVYIEISIFIQVAHVLGVLMTLILVIFTSVIGMSLVRNQGFKNFLLMQQKMAAGESPAAEMIKSVSLIIAGLLLLLPGFFTDFLGLLLLLPPVQKHLTLKLLPHLRFSRMPGGGFSAGTGGGETFDGEYQRKDDDRDRIEHKDDRRD”, the protein production result is given as “failed”. In the case of “MVVSVLMPTYNHERFIEQAILSFIQQQVDFDIELLIGDDCSSDNTSFIARIYAEKYPNKIHLFQYSVNRGLMHNYKYLLNQAKGKYIAILESDDIWLDPFKLHKQVEIIEKTPNCGLVFSNWIVIDADSKEVTRSQRTLKTIGYSDLLKSNMVAAVTVLFSRNMFDLYCDIDEYILRNFKTLDYPVWLSISAHSNIIYLDDYTAGYRCLSTSISNSNSYQRSMAFNQSIDAIVQYVVSKYGKGELTIKELENASKLRYLTQAFQFKKFSQAFSIAWTFHATNIKSFIIKVLPFIWLCKNRKLIGQRLK” it was “failed”; in that of “MVVTCPKCGAKNRLGTPPPGQVPVCGACKTPLPWVVEADEKGFAQEVAGAPLTLVDFFAPWCGPCRLVSPILEELARDHAGRLKVVKVNVDEHPGLAARYGVRSVPTLVLFRRGAPVATWVGASPRRVLEERLRPYLEGR”, “not failed”; in that of “MVVVTGREPDSRRQDGAMSSSDAEDDFLEPATPTATQAGHALPLLPQEFPEVVPLNIGGAHFTTRLSTLRCYEDTMLAAMFSGRHYIPTDSEGRYFIDRDGTHFGDVLNFLRSGDLPPRERVRAVYKEAQYYAIGPLLEQLENMQPLKGEKVRQAFLGLMPYYKDHLERIVEIARLRAVQRKARFAKLKVCVFKEEMPITPYECPLLNSLRFERSESDGQLFEHHCEVDVSFGPWEAVADVYDLLHCLVTDLSAQGLTVDHQCIGVCDKHLVNHYYCKRPIYEFKITWW”, “failed”. In the case of “MVWFLILQLIVLLILVAFSATLMAKGTRELERSFGKGIAGGLILGFINALPETIIVIQAVLNGFYDIALGSALGGNILLLTLGIGLISIFYYLKYKSNIITLDSDINIEYSSFLLAVIILGIAIVYGKLNYYIGLFLLSPYIYYIYRRYKNYRGILKNEKNKGNAIKGLAYVMIGGLPLIFISKYLISTISSIASVFNVQPLILAILITPIAAELEENLTAIKLISDSPSSATTALMNFIGSKLENMTLLLSIIGISQTVSLRPSLLYLLLILATSLLALGIIKDRNIKVKEGLSLFGIYAILIAILLRFSA” it was “failed”; in that of “MVWLAVFLAVLGAFFLAIGAQRQGSAVKADTGGLALSSNGFLRLLRNPRWMLGLLFLALGMVMNAVALVSAPLTVVQPIGAIALVITTVVNAKDQGLSINRATVVAISACVTGSALFVLLAVNVTQENHHVNTEDELTIVLLLALAVGIFGTLAVVFRHRMSAFVYILGAGVLFGFVAVLTRIIGKHLLDPNGLFLLNVQWYTLIAIVAAGGLGSWFVQSAYSGGPPDLVIAGLTVIDPMVGIAIGIVILGELRPDVHAVMAIAMAAAATLAIVGVIALSRHHPEVTKRKKDAKAAASRKA”, “failed”; in that of “MVYLMLCLKIWRVVLKKNKTLVFISLFLLSVFLGGFYFYFDPNILYLLKGEKDFSKLIMGIDFYIDKKKFADAKKAMLFSSYYANTEFKWLALAKRAKLWALNTGDYHLMGEIVNLGVKVLPGNLKLRALEVYSKLKIGLLKDAYRIANEYLLNSEEYQGLYDEVFIKNLSSDNGILDFNKFIDKIYKEKDARIFEEIGLNLKNNAFLINAMLLYIEKKNIDSAKRILFRIKEDKSFLKELAYISYNLNDLDYTISNLKSIKNEEDPTLLFLLADAYFKKGDIKNAKNEYLKLYTRFPDYNVLVYLNLALIANSENDYKRAISYLNKANEVFKDNKIINYYLANIYFGIKNYFKANEIIANYKEDPLFFKLYFALNYANSKYEAKKSYLWRLFYKTEYNSSIAQFLAWNLLLYSDLKDLDLFFRIYNFSENKQDWYDFYKFYYYFLKRDFISSKKIIFDNKSQKYMFGIYYNLGVLSFSEKDYEEAERYFNKGISLLPSSFYDKDSTTPYERELVSKIYLKQGINYLYLGKMEKGKESILASYSFYETDEGRLYKNMIDTLRERNLNFD”, “failed”.

Regarding “MVYWEYKINQTRRVMKNLKFQSVFDIIGPVMVGPSSSHTAGAVRIGKIVSAIFGDAPTEVEFQLFNSFAKTYRGHGTDVALVAGILGMETDDPDIPHALDIAHEKGIKVYWKINKDSKAPHPNTTRITLKNATKTISATGISIGGGNIQVTELNGF”, the protein production entry is given as “not failed”. In the case of “MWAFPERFEGRHVRLEPLALAHLPAFLRHYDPEVYRFLSRAPVAPTEEALRAHLEGLLGEPGRVNWAILFGKEVAGRISVIAPEPEHAKLELGTMLFKPFWGSPANKEAKYLLLRHAFEVLRAERVQFKVDLRNERSQRALEALGAVREGVLRKNRRLPDGAFRDDVVYSVLKEEWPGVKARLEARLYGASGN” it was “not failed”; in that of “MWARTAAWVFGLPETLREICYRRDNVKPVDELQKTIGHRFGDMELLLTAMTHSSWANEQAVPVEHNERLEFLGDAVLELCVSEELFRRFPSAREGDLTRMRSRLVSKPSLEGVARELRLDMSLRLGKGEESQGGRERGSLLSDALEAMLGAVFLDAGYIAAKGVVMRILGPHFPEALVPVRTKDYKSQLQELTQKLFRDRPVYTLLGSSGPEHDKQFDVRVVLPDGTVFEATGPSMKRAEQMAAARAVATLDK”, “failed”. The result for “MWIVLWPGLTGLPDSLVLLARVGGCSVLYDTGSGEPGSIVALAANLASAGVKPWSINVAIVSHAHVPSSGGARWLHDNHRVTIAARRPDSRWIEEGDPVKTAAVDYGLPTKPVPIGLELEREGRMPGECEGVEVLFTPGHTPGSVSVSLDTGDATVLAVSDALGRLKRDWGSSEREWMESLDKISSRDPDYLCTSVTCMDRRAAKAFLDEIREKGPVWDVENSSGDGPG” reads “failed”; that for “MWKKKIVLSFLFYLISALGISLTIQAGVGVSSFNAFNVTFATLTHLKVGTVTTAINFAFLGTCWLLDQQRKIQDYLIILVALIGFGFVINFFLYQLFGSLVFQNYLVKIVLFILGTIIAGIGTGQVVALGVLQFPIEKFCTLISERTRYSFQFYRYLVDIFCVSLALGLSISYHLPIFVREGTVISLFLLSWVISWSRKRGQQRILRIQIKKLESE”, “failed”.

As for “MWNYQKNILVCMIAGLGLSTCTPSDVSIPGAATIDVMNGFPDGESGYALGVSGCYAGKLGDFLLMAGGCNFPDKPVSEGGIKHYYKGIYIARVDDSSSLRWVKAGELPMEAAYGATVSLPDRLIFIGGSNSSDRFSSVLSFSFDCMKDSGLICETLPPLPHAVDNMSATLLGDTLYVLGGNRNGIPSSSMFSLCLDNYSAGWTEVPFPGRPRVQPVCSSLLGKLYVFGGFTSGGDASVSTDGLCYHPESGQWQVVKAPLTTKGEPLTLTGGASVSYGDVLLICAGGVNRDIFEDAISARYQMVRESEYLLQPIEWYRFNDQLLAYNVRSGEWIRIGVPSPMLARAGSSLVVFGDILFYIGGELKPGVRTPGICRISLQK”, the protein production entry is “failed”. On to “MWSYDKITDYLMNNLGEKRYKHSLGVMDTAVRLAGIYNEDTEKARIAGLVHDCAKKLPGEKIIEICTNEGYELGDEDIRNSYLLHGLAGRILAKKVIGIDDEDVLNAIEFHTTGRPNMSLLEKIIYIADYIEPGREFKGVDELRKAADEDLNKALLMSFDNTIKFVIDKGGFLHHNTIEARNYLISRKG”, for which the protein production entry was “not failed”. In the case of “MWTRLLPFLAWLPGLHRGMLGREAWVGLNGAILALPQSMAYALIAGLPAEYGLYAAMLPVAIACLWGSSRYLVSGPTAAISVLLFSSVAPLAPLGSPQYVQAVLLLTFLAGAFQWLLGVLRVGSLVNFVSHSVMLGFTLGAALLIVLGQLPYLLGLAASGEGAAPGNGWRLLARFAEFDGPSLLVGGFSFALSLLVRRLRPRWPALLLGLLGGATLVWALPGTFASVAHVQALSSALPGWSPLVFDSRSILDLLPAAVACGMLGLVTSLSIARALAARQGDAFDANQEVRAQGLSNLLGPWLSASLSAGSFTRSGLNLEAGARSPLAGAFSALWVALLAVLGARLIEHVPLPAMAAGILLIAWGLIDRPALRALYRSGRAECLVAGLTALATLLLPLQNAIYAGVLASLVFYLRRTSTPRVLRQRNDEEEVLRIEGSIFFGACDYLQRLMRQCDRPRLVLDARQVNFIDFAGAVLLQQEARRLHAEGRRLVLRHARPQVREALGRQADEGCRLHYEG” it was “failed”; in that of “MWVYRLKGTLEALDPILPGLFDGGARGLWEREGEVWAFFPAPVDLPYEGVWEEVGDEDWLEAWRRDLKPALAPPFVVLAPWHTWEGAEIPLVIEPGMAFGTGHHETTRLALKALARHLRPGDKVLDLGTGSGVLAIAAEKLGGKALGVDIDPMVLPQAEANAKRNGVRPRFLEGSLEAALPFGPFDLLVANLYAELHAALAPRYREALVPGGRALLTGILKDRAPLVREAMAGAGFRPLEEAAEGEWVLLAYGR”, “not failed”; in that of “MWWWSSSTKGRSNLERFLLGITPKPPSFSLPQEQGKEEIEYFRLGDLWDCYDEMSAYGFGTQVDLNNGETVMQYYVPYLSAIQIHTNKPALLSRNQNEVAESESSEGWSDSESEKLLSRSMSNDSSKTWDAVSEDSVFDPDGSPLLKDRLGNLDFKYIERDPPHKRIPLTDKINVLVEKYPGLMTLRSVDMSPASWMAVAWYPIYHIPTCRNEKDLTTGFLTYHTLSSSFQDNVVEGDQSNNNEETEFCEDSVINKRMPLPPFGVTTYKMQGDLWGKTGFDQDRLLYLQSAADSWLKQLNVDHHDYNFFLNSSF”, “failed”.
